# According to US20260258143A1 (ODYSSEY THERAPEUTICS, published 2026):
# T1: human CD25-extracellular domain (CD25-ECD) (human, UniProt P01589 22-240)
# T1 construct: also called human CD25-ECD; hCD25 ECD
# T1 sequence: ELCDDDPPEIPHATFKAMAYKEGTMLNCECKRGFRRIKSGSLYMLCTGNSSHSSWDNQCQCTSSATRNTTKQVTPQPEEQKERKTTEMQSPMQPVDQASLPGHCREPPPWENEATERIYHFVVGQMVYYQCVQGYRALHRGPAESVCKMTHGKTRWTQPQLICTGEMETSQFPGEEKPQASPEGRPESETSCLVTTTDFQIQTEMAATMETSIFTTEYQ
# Target: T1, human CD25-extracellular domain …
# Experiment: SPR, V-body on chip, human CD25-ECD 500 nM then IL2-Fc 1000 nM
# Protocol: The sensorgrams display IL2-Fc competition: association of human CD25-extracellular domain (ECD) to the V-body followed either by additional binding by IL2-Fc, Indicating an unoccupied epitope (non-overlapping epitopes), or no IL2-Fc binding, indicating epitope blocking (overlapping epitopes), and a buffer control, association and dissociation of human CD25-ECD in the absence of IL2-Fc. Human CD25-ECD was injected (500 nM) under physiological conditions (50 mM HEPES pH 7.4, 150 mM NaCl, 0.1% (w/v) BSA, 0.05% (v/v) Tween20, 25° C.) followed by human IL2-Fc (1000 nM). V-body ODY-83B03Hu1 was identified as a ligand competitive binder. ODY-83B05Hu1 and ODY-83F07Hu1 were identified as non-competitive binders.
row,binding result,Binder
1,binds,"ODY-83B03Hu1 (VHH, Captured on an SPR chip spot; also called ODY-83B03 humanized VHH) VHH: EVQLVESGGGLVQPGGSLRLSCAASGMPLVAMGWYRQAPGKQRELVASISSGGNTGYADSVKGRFTISRDNAKKTVYLQMNSVRPEDTGVYYCNIYRSQVPPTRYSWGQGTQVTVSS"
2,binds,"ODY-83B05Hu1 (VHH, Captured on an SPR chip spot; also called ODY-83B05 humanized VHH; ODY-83805Hu1) VHH: EVQLLESGGGLVQPGGSLRLSCAASGFTLDYYAIGWFRQAPGKEREGVLSISSTDGRTYYADSVKGRFTISRDNPKNTVYLQLNSLRPEDTAVYYCAAKRLGPMVHRYSLEVLTPLFLDEYDYWGQGTQVTVSS"
3,binds,"ODY-83F07Hu1 (VHH, Captured on an SPR chip spot; also called ODY-83F07 humanized VHH) VHH: EVQLLESGGGLVQPGGSLRLSCAASGFTLDYYAIGWFRQAPGKEREGVLSISSTDGRTYYADSVKGRFTISRDNPKNTVYLQLNSLRPEDTAVYYCAAKRLGPMVHQYSLEVLTPLFLDEYDYWGQGTQVTVSS"
